Assay results as given in the supplement of paper PMC10724198.
± gives the standard deviation of the averaged measurements.

What was measured:
Saccharomyces cerevisiae [1] = test: protein stability index of tFT-peptide fusion (C-terminal peptide) (PSI (0-1 scale)); higher = more stable (slower turnover); conditions: genetic background: wild type; temperature: 30 C
Saccharomyces cerevisiae [2] = test: as above
Method: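 MPS profiling in S. cerevisiae of the tFT-X12 degron library: putative degron peptides plus stable controls, 12 aa, fused to the C-terminus of a sfGFP-mCherry timer. Cells are FACS-sorted into 8 mCherry/sfGFP bins and deep-sequenced. PSI runs from 0 (unstable) to 1 (stable). Backgrounds are wild type, das1Δ and doa10Δ at 30 °C, and wild type, das1Δ, cdc34-1 and cdc53-1 at 37 °C; 2-3 technical replicates each.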

[3] = genetic background: cdc34-1, temperature: 37 C
[4] = genetic background: cdc53-1, temperature: 37 C
[5] = genetic background: das1 deletion, temperature: 30 C
[6] = genetic background: das1 deletion, temperature: 37 C
[7] = genetic background: doa10 deletion, temperature: 30 C
[8] = genetic background: wild type, temperature: 30 C
[9] = genetic background: wild type, temperature: 37 C
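Also: PSI is a weighted mean of sequencing reads over stability bins, variants kept only with over 10 reads, mCherry proximal and sfGFP distal, peptide attached via GGGS linker.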

Row | Sequence | protein stability index (Saccharomyces cerevisiae [1]) | protein stability index (Saccharomyces cerevisiae [2]; [3]) | protein stability index (Saccharomyces cerevisiae [2]; [4]) | protein stability index (Saccharomyces cerevisiae [2]; [5]) | protein stability index (Saccharomyces cerevisiae [2]; [6]) | protein stability index (Saccharomyces cerevisiae [2]; [7]) | protein stability index (Saccharomyces cerevisiae [2]; [8]) | protein stability index (Saccharomyces cerevisiae [2]; [9])
1 | SFWLFSSIGVCF | 0.512 ± 0.019 | 0.594 ± 0.035 | 0.5958 ± 0.004 | 0.461 ± 0.031 | 0.578 ± 0.017 | 0.4316 ± 0.00081 | 0.465 ± 0.011 | 0.5772 ± 0.0052
2 | SGMLVYFGTVCY | 0.4498 ± 0.0028 | 0.502 ± 0.0077 | 0.599 ± 0.13 | 0.341 ± 0.03 | 0.577 ± 0.014 | 0.318 ± 0.028 | 0.357 ± 0.0091 | 0.511 ± 0.027
3 | SKSRKTGWMLIS | 0.153 ± 0.015 | 0.622 ± 0.055 | 0.743 ± 0.029 | 0.632 ± 0.033 | 0.74 ± 0.013 | 0.156 ± 0.014 | 0.164 ± 0.033 | 0.427 ± 0.022
4 | SLFSPPVLATPS | 0.0217 ± 0.0033 | 0.668 ± 0.031 | 0.7094 ± 0.0039 | 0.572 ± 0.018 | 0.705 ± 0.011 | 0.556 ± 0.02 | 0.569 ± 0.022 | 0.6797 ± 0.0026
5 | SLGHIGFWRFAG | 0.191 ± 0.011 | 0.554 ± 0.0087 | 0.709 ± 0.0081 | 0.66 ± 0.009 | 0.77 ± 0.011 | 0.103 ± 0.018 | 0.108 ± 0.013 | 0.169 ± 0.0063
6 | SLLFVFVSVGCI | 0.253 ± 0.016 | 0.0483 ± 0.0074 | 0.147 ± 0.0097 | 0.148 ± 0.03 | 0.246 ± 0.035 | 0.116 ± 0.0038 | 0.148 ± 0.025 | 0.166 ± 0.023
7 | SLRSLYLLARLS | 0.194 ± 0.021 | 0.518 ± 0.061 | 0.689 ± 0.047 | 0.636 ± 0.033 | 0.732 ± 0.012 | 0.076 ± 0.017 | 0.0777 ± 0.024 | 0.0971 ± 0.015
8 | SLSPVFVAVWFL | 0.432 ± 0.013 | 0.466 ± 0.012 | 0.4933 ± 0.0015 | 0.383 ± 0.057 | 0.537 ± 0.01 | 0.323 ± 0.0075 | 0.331 ± 0.016 | 0.474 ± 0.026
9 | SLVLLLLITFSL | 0.491 ± 0.017 | 0.431 ± 0.023 | 0.507 ± 0.015 | 0.376 ± 0.025 | 0.527 ± 0.014 | 0.377 ± 0.016 | 0.373 ± 0.02 | 0.495 ± 0.021
10 | SNFFPVPLLLFR | 0.383 ± 0.088 | 0.211 ± 0.0084 | 0.117 ± 0.024 | 0.309 ± 0.016 | 0.383 ± 0.0094 | 0.647 ± 0.024 | 0.297 ± 0.019 | 0.327 ± 0.031
11 | SPCFLDPPRLIS | 0.388 ± 0.025 | 0.663 ± 0.031 | 0.728 ± 0.025 | 0.681 ± 0.022 | 0.7568 ± 0.0044 | 0.287 ± 0.018 | 0.328 ± 0.032 | 0.536 ± 0.02
12 | SPLHGFLFLVLL | 0.424 ± 0.021 | 0.395 ± 0.03 | 0.445 ± 0.0069 | 0.403 ± 0.025 | 0.523 ± 0.012 | 0.528 ± 0.024 | 0.403 ± 0.028 | 0.496 ± 0.021
13 | SPLLPPPLLFLS | 0.211 ± 0.0097 | 0.596 ± 0.056 | 0.7307 ± 0.0032 | 0.6555 ± 0.0025 | 0.729 ± 0.009 | 0.1475 ± 0.0013 | 0.168 ± 0.033 | 0.241 ± 0.033
14 | SRDSLLTLIPSC | 0.692 ± 0.037 | 0.646 ± 0.058 | 0.733 ± 0.0095 | 0.6189 ± 0.002 | 0.7393 ± 0.0043 | 0.622 ± 0.017 | 0.636 ± 0.013 | 0.697 ± 0.0081
15 | SRLVIGRWSVLV | 0.318 ± 0.019 | 0.567 ± 0.045 | 0.617 ± 0.016 | 0.492 ± 0.03 | 0.6346 ± 0.0035 | 0.177 ± 0.013 | 0.217 ± 0.034 | 0.442 ± 0.0031
16 | SRPEPNGLRKLV | 0.293 ± 0.069 | 0.587 ± 0.009 | 0.727 ± 0.015 | 0.605 ± 0.029 | 0.751 ± 0.018 | 0.139 ± 0.024 | 0.172 ± 0.024 | 0.315 ± 0.052
17 | SSAPTIVIWRFS | 0.495 ± 0.027 | 0.672 ± 0.041 | 0.724 ± 0.026 | 0.592 ± 0.031 | 0.7 ± 0.0079 | 0.401 ± 0.024 | 0.428 ± 0.011 | 0.6081 ± 0.0015
18 | SSGSLLLPRFLT | 0.387 ± 0.03 | 0.658 ± 0.038 | 0.7301 ± 0.0046 | 0.672 ± 0.023 | 0.734 ± 0.019 | 0.222 ± 0.019 | 0.243 ± 0.038 | 0.54 ± 0.037
19 | SSLLPLLAQLVG | 0.406 ± 0.05 | 0.594 ± 0.046 | 0.7484 ± 0.0013 | 0.581 ± 0.05 | 0.68255 ± 0.00041 | 0.252 ± 0.014 | 0.265 ± 0.039 | 0.411 ± 0.01
